Reference: the DeepSol protein solubility set

assay: soluble on expression in E. coli; label from the status in PepcDB or PDB records

Sequence	soluble on expression in E. coli
MTVVNEYRPVEVFFGEGAVKKAGEVGRRFGFKALIVTGRKSTKESGALDKLINSLKQNQIEYVVFDEITPNPTDKQVNKGAEIAVNEKVDFIVGIGGGSVLDAAKAISIVSSNEGYAWDYVRYPEGSRLIPFLNRPVITIPTTAGTGSEVNRYSVLTNPMTKEKMVISHSLNYPKVALVDPELTYSMPPRLTALTGFDALMHALESLTNKRENFIAEEYSVKAIELIRKWLPVAFEEPENKEARRYMSYAAMLAGIAIDHLGVALIHAMEHPVSGHYPEVAHAEGLSALAPYITAFNYRGNPEKYALFARLMGEEEKPHKAVDALVKFIERFSLPKTLKELGVEKEKLPRLAEDVYMCARHSFAVNPVEVGMEEVEELYERAYEGRL	soluble
MTYETISVRMNRSDRNIRWGFSVRQQADGLIIDRVEAESLSDKAGVKHNDKVDQINGRSTRGLDAASANRLIDDSFNEVRLSLQRFVTSHTTLPWTLNEKDNKMVVEEMKPGFGTGFGSGFGSSNFVNSSFNQNQNNFGSHFGTGSGVNQRNITNTNTSSSNHQSSTFHSSSHQSSGNYGSGGFSPSSHHNIPIRHSPAPPFTTSNSSYNNIKKSTDNTILPGSANYNPNNSSNYNSVPTGFGASSGGYGGSGGFKGHSNGSAIPAQAPPTSYSYNNGATSQPYGAGSGGTPLNQMTFINTSPAPGANGAYGAQCGLSPSKVFYHSPSGRSRNELSPGAAVHHLQYNSPMNLYSSEATAEQLYQQTGAVPEGPVPHDKSPAYLTSETRKLIEEEARGRFQRGKSPSSQSSCFKRISHAVGADH	not soluble
MTYLETAAQFYSEVAQTPQVGLCCVQSTPLQLPGLKIPLPMQEMNYGCGTTVHPTELGKQPTVLYVGVGGGLEALQFAYFSRRPGAVIAVEPVAAMREAAARNLEMALTDNPWFDSSFVEIREGDAFNLPVADGSVDIVAQNCLFNIFEPEDLTRALKEAYRVLKPGGRLQMSDPIATSPVPAHLQQDERLRAMCLSGALTYEEYTQRIIDAGFGQIEIRARRPYRLLDSQTYNLETHLLLESLDSVSFKVPMPEDGACIFTGRTAIYAGCDAFFDDKAGHILQRGIPATVCDKTAAKLATVKPKEVIITDSTWHYNGGGCCLEHHHHHH	soluble
MTYRELVERQLAVRHADLELGLSRAREQEPFVIHVSDLLDKAGIEYAVRMDKDFQTTFHLEYPITNYDTFKRAVWQTLGAYYCVCNDGDGLEIASNRPDGYAVRIVFGDVPV	not soluble
MTYRIVLKSDPEKRFKNIRACKDEPMQMVVRNINNGADYVHPEQDVEVFSVKTANNNDLVCVKCTPDSYSSNPAVAEQVVLFCQPNSSDLGGFLQPNSMNFVTYANVFETDLYAFDYSGYGFSSGTQGEKNVYADVRAVYEKILEMRPDKKIVVMGYSIGTTAAVDLAATNPDRLAGVVLIAPFTSGLRLFSSKPDKPDTCWADSFKSFDKINNIDTRVLICHGDVDEVIPLSHGLALYEKLKNPVPPLIVHGANHHTILSGKYIHVFTRIANFLRNETLVSCRSAEVDSSQQQQQLSSKRTENE	not soluble
MVAEVSPKLAASPMKKPFGFRGKMGKWCCCCFPCCRGSGKNNMGAWRDHDDSAFTEPRYHVRREDLGKLHRAAWWGEVPRADLIVMLRGPGINKRDKKKRTALHLACANGNSEVVSLLLDRQCQLHVFDSKKRTALIKAVQCQEDECALMLLQHGTDPNLPDMYGNTALHYAVYNEDKLMAKTLLLYGADIESKNKGGLTPLLLAVHGQKQRMVKFLIKKKANLNALDRFGRTALILAVRCGSASIVSLLLQQNIDVFSQDVFGQTAEDYAVSSHHSIICQLLSDYKENQMPNNSSGNSNPEQDLKLTSEEEPQRLKGSENSQHEKVTQEPDINKDCDREVEEEMQKHGSNNVGLSENLTDGAAAGNGDGGLVPQRKSRKHENQQFPNTEIEEYHRPEKKSNEKNKVKSQIHSVDNLDDITWPSEIASEDYDLLFSNYETFTLLIEQLKMDFNDSASLSKIQDAVISEEHLLELKNSHYEQLTVEVEQMENMVHVLQK	not soluble
MVAPETERIRTQIRVYLLVEDLQRQFAAYLGTPTRARGYPPYEGEHALIVEVSPALAIERVIDLALRAVPGVQPGILYVERQFGVLEIHSASLDEVRRAGEAILAGTGNRAEDQLRPRVLFHDIITDITDQHAVILNRNRQASMILPGQSLLVYEMTPALFAAVAANEAERVAPGLTVVDVQMIGAAGRLYIGGSTDEVTVARDHITTVLSAIEGQEH	not soluble
MVAQKAYVSTPTLIDYLSRSAIKLLDIHSILLKVREEAMGGEPNLLRQIDSTKKQLDEISHALILEYRKRQENERFLKQILLSISDQLFSLNNGFKETGRLFFQEIRMLQSQMQCFYEGKERQYLLSEQESSYSPSKIDEVIKQLQKAREKLIVESPHLFEKEC	not soluble
MVARSEEIVIVEEDTTAKCLMLLSRVGECGGGCGGDERVFRCKTCLKEFSSFQALGGHRASHKKLINSDNPSLLGSLSNKKTKTSHPCPICGVKFPMGQALGGHMRRHRNEKVSGSLVTRSFLPETTTVTALKKFSSGKRVACLDLDLDSMESLVNWKLELGRTISWS	not soluble
MVAVKREFELSHVFKDVSKLEDGNTFYGPEEEHFNVQWRIVLIHQKEDVAVFLRYLHPKNEQAPWKIDSEFTLKLSNSSGKSVTKTGSDIWNSYDALGFCDVFEWDSLLKDYLIDDVIIIEVAVKIKNMSGIPKKKLKSFERSNEEFSDVILAVGDKKFFVLRKFLASHSTYFETLLLGNFAEADKSEVKLQDINSTDFQNLMEVRYGEYAIDEETVDGILHLAHLYDMPFPIKRCEEFLVDSSEKSTKEKLKVAKKYQLENLKASCLAKINTLEEIKAALAGDLDEMDPSVVHALFRKSLALH	not soluble
MVAYPGPMPRSPSPGQTPDAPTSGGGSTDSTRQRIVAAAKEEFARHGIAGARVDRIAKQARTSKERVYAYFRSKEALYAHVAERETTALIEATQLDPADLPGYAGILFDHFAARPDHYRLITWGRLELAESADNTSGPLQATIAGKLDKLRDAQRIGLLDPAWDPVDVLALINQIAMTWAGQPEIAAAAADQAVDPSVTARRAALVTAVEHMFPRPDRDQRPNRLT	soluble
MVDIDSAVEAARRRGARRIVLQLPEGMLQYGLYIAKCFEEMLGGAAQVYLHADPTFGACDLHYGELDTTVRPDLIVHVGHSPYPAELAHEGLEPRGRVVYVRALSKSQLPLDALREAAGLLASRYGVRRVGIATTAQHTHLAEKAAEVLRGEGLEVAVPPGLRPYFGAAQVLGCDYRLARGVRADGFVYVGGGVFHPLGLYLATLKPVVQVDPYRGVSEDLTREGEKLYRSRLYRVSQSIGARRWGIIVGLKSGQYRPWLVEKLARAIESAGGEYLLVASEVTTLSQLVAIDNPWFEAFTVTSCPRLPTDDFWSYEKPVLTPGEAMMALEGRLEPYRFPWAAALEHHHHHH	not soluble
MVDKDIHSEHWYHGLLPREDIKAMLRKNGDFLVRSTEPKAGEPRQYVLSAMQSEELEDAGVKHYVMRLNSSNQIFLEAKGFETIASLVNYYMSSKEPIKKLTVLKTPILKQPWEIEHSQVELTKKLGEGAFGEVWKGKLTLKNGNVENCAIKTAKLESLNKEQIKEIMREARLMRNLDHPNVVKFYGVGASQEPLYVIMELADCGALDSYLQKNPNLVPDKKMEMIYQAACGISYMHEKKLLHRDIAARNCLYGGGQVKIADFGLSREGISYVMDLTKKVPIRWLAPETLKAGIYSPKTDVFAFGIMAWEITENGKEPYPDMRVADVVGKVRNGYRMRFDPVFVDFRFGDYVTKHCWAENPADRVSMADVLRYLQTTFGMKPVVLSILSSNRSTEEEMKTMKPPMFSVKRNNKKKPK	not soluble
MVDKGVKIKVDYIGKLESGDVFDTSIEEVAKEAGIYAPDREYEPLEFVVGEGQLIQGFEEAVLDMEVGDEKTVKIPAEKAYGNRNEMLIQKIPRDAFKEADFEPEEGMVILAEGIPATITEVTDNEVTLDFNHELAGKDLVFTIKIIEVVE	soluble
MVDLNKYKRFVETHGMKIPVLSLEYEYQAYLKLGRVEKAETLRKWLNERKG	not soluble
MVDPNEHKKAVKTQQQDDEQTFEAVARAWHTDNKKWSESHAERILKSLSDNIFPAIGGTHVANLKTRDLLTPIKSVERSGRLEVAKRLKQRVTAIMTYAVQNGLIDYNPAQDMAGAIMPGKVEHRLEHHHHHH	not soluble
MVDVIVIGAGIGGLTAAALLQERGFSTVVFEKNRFPGGSCSSFEKGGYTFDAGASVFYGFCDDDAMGTLNLHSRIFRKLGIAVETIPDPVQIHYHMPGGFDVPAWFDRDRFLESLCRRFPHERTGIRKFYDELESVYEILNSLPAGSLEDVIHLGVVGARHPLKVMALGVKTLFSMGNVARRYISDKELLRFIDLEAYSWAVQDAVSTPLVNAGICLADRHHGGINYPVGGSGTIPAALVKGFEKFGGSIRFGSEVSKVIVKNGSAVGVRLSDGTEVSAKAVVSNATVWDTFSKLVDDPRLRIPDDRFIKAPSWFQIWLGVDGSIVPPGFHMHHIIVDDWSKYDELGGTIYFSAPSVLDPSLAPPGKHALHLFVTAETWQWEQYEYRSQEYKAAKEAFAKSLIARAERLLPGIQDATELMVTATPQSHARYLNRRDGSYGPLLKPGQNILLKPQNRTPIKNLFAAGDSTFPGQGVIAVTYSGVSCASYIARQLGKALDYLLEHHHHHH	not soluble
MVEFRNEVSHQWTRRHTLRKFRAGMLSRDSLCDADFVLVTASKFHGSRVPTPCPVCDSDQLRHVLWVYGESLGRASGSARTMEEIVTFAQSGKEFTVHTVEVCPDCRWNHLLNSVTAMPQ	not soluble
MVEIDFNKENEEDFSDPPGFVDDVTDDVLVPDVLHKKPTIDEFEDNCVFIAGIPVVGADRLGKLQSVLKKVLERLDPAVKLYIPPSPEGGCLGVLLTEWADQRSAQFAVKSLNGYAFDKNHTFTARSFKDMKQLEAPSDHWTTPEKQAYNDVGDLWWWLQNERCRDQFAISHDKLGVPTVGVFTNMKGNDPELAGDADKAERANWTETVFTWSPHGSYLSTIHKQGIILWGGKDYARAHRFAHTNVQYIDFSPWETYLVTYAAPEESNSWGDCEKDSLRIWDVRTGELKKAFSTFELTGRTQLPTWPFFRWSFDEKYFACLKAPEKDKLEREQKINGISIFESEKFELYEGRPVNIENIKQFEWSPTSTVLAYYSECTDAVPAEFGLLQVPSMQRLRSARVHNVADAQMFWQKSGKRLAFYTMRFKKKEYRETGEVKYVGGCQYHVDIFEIDKKDVSLMNLPLSEPFIHFDWDPEGDKFCVLVGNTAKATPQVYKIEANSHAPKLVSKLDAGVHFNEVQFAPKGGWLAVLAKVSAGGNVYFIDTSLSEAKRTNVIEHPLFNKGYWDPTGRYFVTCSTLGGRAGADLGYRIFTFQGRELCRKNLDRLAQFKWRPRPPVKLSEQKQREIKKNLKKTAAKFIKQDDDEKCRASQEVVEKRRKIMAAFDIIRSRNREQLDATRDERISLRNGVDTEAQLDEDEFVDEEITIALSTSKTQAPLTEEEMRD	not soluble
MVFDAIVVTDLQGFIIDWNKGSETLYGYSKEQAIGQPVNMLHVPGDTEHITSEVISAVENQGKWTGEIRMLHKDGHIGWIESMCVPIYGENYQMVGALGINRDITKRKKELEHHHHHH	not soluble
MVFYFKARPDAGDYTIFMGLDKFENEELIKYGFPEDVWFHVDKMSSAHVYLRLHRGQSFDDISEGVLEDCAQLVKANSIQGNKVNNVDVVYTPWSNLKKTASMDVGQVGFHNSKMVRTIRVEKRVNEIVNRLNKTKVERTPDLRAEREAVNAAERAERKQHLREKKKREEIDRLEKERQSEMRSYKGLMVTDKMTSNKDIASSNKSLQELEDDFM	soluble
